# Assay results from patent US20180021429A1, “ANTICANCER AGENTS OR ANTIMETASTATIC AGENTS USING FSTL1 AND COMBINATION DRUG THEREOF” (PHARMA FOODS INTERNATIONAL CO., LTD., priority 2015, published 2018).
# B1: #6-55: chicken-mouse chimeric anti-FSTL1 antibody clone; variable regions SEQ ID NO: 783 (light), 785 (heavy) (antibody, V domains shown)
# VH: AVTLDESGGGLQTPGGALSLVCKGSGFTFTSVTMQWVRQAPGKGLEWVASVCSGSSTYYAPAVKGRATISRDNGQSTVRLQLSNLRPEDTGTYYCAKIAGRARWSCTSAAYNIDAWGHGTEVIVSS
# VL: ASTQPSSVSAIPGETVKITCSGGGNNYGWYQQRSPGSAPVTVIYYNDNRPSNIPSRFSGSTSGSTSTLTITGVQADDEAIYYCGSWDSNTDSGIFGAGTTLTVL
# modifications: mouse constant regions
# Legend:
# Panc1-snail+ = assay: Action of anti-FSTL1 antibody on Panc1-snail+ cells forced to express Snail (invasion, CCR2 and RANKL expression); format: cell-based, human; details: antibody 5 μg/ml
# Description: Cell invasion was evaluated in the presence of the anti-FSTL1 antibody (#6-55, 5 μg/ml) or a control antibody (aHema, 5 μg/ml) in a chamber using Panc1-snail+, a cell line forced to express Snail, instead of the FSTL1-stimulated tumor cells of the preceding paragraph.
# (§1) In this Example, Panc1-snail+ cells were cultured for 3 days in the presence of the added antibody. Then, the expression of CCR2 and RANKL among molecules known as bone metastasis markers was analyzed by flow cytometry. […] The anti-FSTL1 antibody presumably has inhibitory activity against cell invasion (FIG. 50D).
# as §1, with “82D).” for “50D).”
# [1] = tested on: mouse breast cancer 4T1 cells; assay: Mouse breast cancer 4T1 cell-transplanted model (Example 21); format: in vivo; details: BALB/c mice; intraperitoneal 10 mg/kg on days 4 and 7; FIG. 109
# Description: (§2) Procedures and methods of the experiment were basically performed according to Examples 17 to 20 under substantially the same conditions as in the bone metastasis model experiments of Examples 17 to 20. Drug efficacy evaluation was conducted using mouse tumor models other than Snail-positive tumor bone metastasis models. The drug efficacy of the anti-FSTL1 antibody was evaluated using cancer-bearing models of BALB/c mice different in strain from the C57BL/6 mice used in the preceding tests. Changes were made as follows. • Day 0: transplantation of tumor cells (5×10^5 cells subcutaneously & 5×10^5 cells intravenously) • Days 4 and 7: intraperitoneal administration of the antibody (10 mg/kg) • Day 14: drug efficacy evaluation (subcutaneous tumor growth)
# (§3) The tumor volumes of the mice were measured 4, 7, 11, and 14 days after tumor implantation.
# [2] = tested on: mouse breast cancer 4T1 cell-transplanted models; assay: In vivo breast cancer model (Example 21); parameters: species or system BALB/c mice; details: intraperitoneal 10 mg/kg on days 4 and 7; day 14
# Description: as §2, with “intravenously)” for “intravenously) •”
# as §3
# mouse bone marrow cells = assay: Inhibition of induction of MSCs, cancer-associated MSCs and M-MDSCs by FSTL1 in mouse bone marrow cells (Examples 13-15); format: cell-based; details: Example 15: 20 ng/mL FSTL1; antibody 20.0, 10.0, 5.0 or 2.5 μg/ml; 8 days; FIG. 104A
# Description: Mouse bone marrow cells prepared in the same way as in Example 4 were supplemented with 20 ng/mL ([…], #7-34, #8-1, or #8-4), an anti-PD-L1 antibody reported to have an immunosuppression-mitigating effect, or a control antibody anti-DNP antibody and cultured under stimulation. 8 days thereafter, the number of cells was counted while the cells were stained with a PE-Cy5-labeled anti-CD45 antibody, a PE-labeled anti-ALCAM antibody, a FITC-labeled anti-CD271 antibody (Abcam plc, Cat. No. AB62122), a FITC-labeled anti-CD11b antibody (BD Pharmingen/Becton, Dickinson and Company, Cat. No. 553310), and a PE-Cy5-labeled anti-Gr1 antibody (eBioscience, Cat. No. 15-5931) in order to detect MSCs (CD45− negative cells), cancer-associated MSCs (CD45-negative, ALCAM-positive, and CD271-positive cells) which are MSCs increasing in number in association with cancer metastasis, and monocytic myeloid-derived suppressor cells (M-MDSCs: CD11b-positive, Gr1-positive, and ALCAM-positive cells) increasing in number together with cancer-associated MSCs, and the contents of the cells mentioned above were analyzed by flow cytometry using FACScan to calculate the percentage and number of MSCs per culture (FIG. 102). […]
# The antibody clone (#6-55, #7, #10, #13, or #22) was evaluated for its activity by the same testing method as in Example 13. #6-55 was set as a positive control for activity. […]
# [3] = tested on: human pancreatic cancer cell line Panc1; assay: Action of anti-FSTL1 antibody under FSTL1 stimulation (Example 26); format: cell-based; details: Panc1 stimulated with FSTL1 for 3 days; antibody 5 μg/ml
# Description: Next, in order to examine how surrounding tumor cells were changed in a cancer microenvironment by receiving FSTL1 produced by Snail/FSTL1-expressing cells, and how the anti-FSTL1 antibody acts thereon, a human pancreatic cancer cell line Panc1 confirmed to express Snail or FSTL1 only slightly was stimulated with FSTL1 for 3 days. The anti-FSTL1 antibody (#6-55, 5 μg/ml) or a control antibody (aHema, 5 μg/ml) was added to this culture system, and subsequent change in cell function was analyzed in the same way as in the preceding paragraph. […] The paper also reports that FSTL1 enhances invasive capacity.
molecule,measurement,setting,value
B1,cell invasion,Panc1-snail+,suppressive activity was able to be confirmed
same,growth of 4T1 subcutaneous tumor,[1],significantly suppressed
same,growth of 4T1 subcutaneous tumor,[2],significantly suppressed
same,"inhibitory activity against the induction of MSCs, cancer-associated MSCs, and M-MDSCs by FSTL1",mouse bone marrow cells,at the same level
same,cell growth,[3],the cell growth was reduced by the addition of the anti-FSTL1 antibody together with FSTL1
same,invasive capacity enhanced by FSTL1,[3],the action thereof is canceled
